The values that follow come from the RNAGym collection of RNA variant scans (doi:10.7554/elife.80360).

To fix the notation:
B1: Hairpin Ribozyme (parent)
chain: GUCCUCUUUCACGUGCGCGUGAAAGAGAGAAGUGAACCAGAGAAACACACGUUGUGGUAUAUUACCUGGUA

Variants of B1 are the subject of this data set. As to the kind of experiment: self-cleavage, relative activity (ratio to wild type); higher = more cleavage; co-transcriptional.
Take GUCCUCUUUCACGUGCGCGUUAAAGAGAGAAGUGAACCAGAGAAACACACGUUGGGGUAUAUUACCUGGUA [G21U U55G]: the self-cleavage came to 0.2. Regarding GUCCUCUUUCACGUGCGCGUGCAAGAGAGAAGUGAACCAGAGAAACACACGUUGAGGUAUAUUACCUGGUA [A22C U55A], the self-cleavage amounted to 0.217. As for GUCCUCUUUCACGUGCGCGUGCAAGAGAGAAGUGAACCAGAGAAACACACGUUGUGGUAUAUUACCUGGUC [A22C A71C], the self-cleavage was determined as 1.26. As for GUCCUCUUUCACGUGCGCGUGCAAGAGAGAAGUGAACCAGAGGAACACACGUUGUGGUAUAUUACCUGGUA [A22C A43G], the self-cleavage worked out at 0.249. For the variant GUCCUCUUUCACGUGCGCGUGCAAGAGAGAAGUGAACCUGAGAAACACACGUUGUGGUAUAUUACCUGGUA [A22C A39U], the self-cleavage is 0.461. Then GUCCUCUUUCACGUGCGCGUGGAAGAGAGAAGUGAACCAGAGAAACACACGUUGUGGUAUAUUACCUGGUU [A22G A71U], with 0.702. For the variant GUCCUCUUUCACGUGCGCGUGGAAGAGAGAAGUGAACCAGAGAAACACACGUUGUGGUAUAUUACCUGGUG [A22G A71G], the self-cleavage amounted to 0.907. Turning to GUCCUCUUUCACGUGCGCGUGCACGAGAGAAGUGAACCAGAGAAACACACGUUGUGGUAUAUUACCUGGUA [A22C A24C], the self-cleavage was 0.233. For GUCCUCUUUCACGUGCGCGUGCAAGGGAGAAGUGAACCAGAGAAACACACGUUGUGGUAUAUUACCUGGUA [A22C A26G] the value was 0.557.

On to GUCCUCUUUCACGUGCGCGUGGAAGAGAGAAGUGAACCAGAGAAACACCCGUUGUGGUAUAUUACCUGGUA [A22G A49C], for which the self-cleavage worked out at 0.164. As for GUCCUCUUUCACGUGCGCGUGGAAGAGAGAAGUGAACCAGAGAAACACGCGUUGUGGUAUAUUACCUGGUA [A22G A49G], the self-cleavage is 0.345. For GUCCUCUUUCACGUGCGCGUGGAAGAGAGAAGUGCACCAGAGAAACACACGUUGUGGUAUAUUACCUGGUA [A22G A35C] the value was 0.715. As for GUCCUCUUUCACGUGCGCGUGCAAGAGAGAAGUGUACCAGAGAAACACACGUUGUGGUAUAUUACCUGGUA [A22C A35U], the self-cleavage amounted to 0.746. With GUCCUCUUUCACGUGCGCGUGCAAGAGAGAAGUGCACCAGAGAAACACACGUUGUGGUAUAUUACCUGGUA [A22C A35C], the self-cleavage came to 0.895. GUCCUCUUUCACGUGCGCGUGCAAGAGAGAAGUGGACCAGAGAAACACACGUUGUGGUAUAUUACCUGGUA [A22C A35G]: the self-cleavage was determined as 0.679. Then GUCCUCUUUCACGUGCGCGUGGAAGGGAGAAGUGAACCAGAGAAACACACGUUGUGGUAUAUUACCUGGUA [A22G A26G], with 1.09; and GUCCUCUUUCACGUGCGCGUGCAAGAGAGAAGUGAACCAGAGAAACACACGAUGUGGUAUAUUACCUGGUA [A22C U52A], with 0.821. Then GUCCUCUUUCACGUGCGCGUUAAAGAGAGAAGAGAACCAGAGAAACACACGUUGUGGUAUAUUACCUGGUA [G21U U33A], with 0.242; and GUCCUCUUUCACGUGCGCGUUAAAGAGAGAAGGGAACCAGAGAAACACACGUUGUGGUAUAUUACCUGGUA [G21U U33G], with 0.127.

On to GUCCUCUUUCACGUGCGCGUGCAAGAGAGAAGGGAACCAGAGAAACACACGUUGUGGUAUAUUACCUGGUA [A22C U33G], for which the self-cleavage was 0.0647.

As for GUCCUCUUUCACGUGCGCGUGCAAGAGAGAAGUGAACCAGAGAAACACAGGUUGUGGUAUAUUACCUGGUA [A22C C50G], the self-cleavage came out at 0.126.

Take GUCCUCUUUCACGUGCGCGUGCAAGAGAGAAGUGAACCAGAGAAACACAAGUUGUGGUAUAUUACCUGGUA [A22C C50A]: the self-cleavage came out at 0.22. Turning to GUCCUCUUUCACGUGCGCGUUAAAGAGAGAAGUGAACCAGAGAAACACACGUUGUGGUAUAUUACCUCGUA [G21U G68C], the self-cleavage was 0.187.

Consider GUCCUCUUUCACGUGCGCGUGCAAGAGGGAAGUGAACCAGAGAAACACACGUUGUGGUAUAUUACCUGGUA [A22C A28G], for which the self-cleavage is 0.807. Take GUCCUCUUUCACGUGCGCGUGCAAGAGAGAAGUGAACCAGAGAAACACACGUUGUGGUAUAUUACCGGGUA [A22C U67G]: the self-cleavage was 0.204. Regarding GUCCUCUUUCACGUGCGCGUGCAAGAGAGAAGUGAACCAGAGAAACACACGUUGUGGUAUAUUACCUGCUA [A22C G69C], the self-cleavage came to 0.366. As to GUCCUCUUUCACGUGCGCGUGGGAGAGAGAAGUGAACCAGAGAAACACACGUUGUGGUAUAUUACCUGGUA [A22G A23G], the self-cleavage turned out to be 0.945. As for GUCCUCUUUCACGUGCGCGUGGAAGAGAGAAGUGAACCAGAGUAACACACGUUGUGGUAUAUUACCUGGUA [A22G A43U], the self-cleavage was 0.0762. Regarding GUCCUCUUUCACGUGCGCGUGGAAGAGAGAAGUGAACCAGAGCAACACACGUUGUGGUAUAUUACCUGGUA [A22G A43C], the self-cleavage turned out to be 0.158. Then GUCCUCUUUCACGUGCGCGUGGAAGAGAGAAGUGAACCAGAGGAACACACGUUGUGGUAUAUUACCUGGUA [A22G A43G], with 0.121; and GUCCUCUUUCACGUGCGCGUGGAAGAGAGAAGUGAACCAGAGAACCACACGUUGUGGUAUAUUACCUGGUA [A22G A45C], with 0.13.

Regarding GUCCUCUUUCACGUGCGCGUUAAAGAGAGAAGUGAACCAGAGAAACACACGGUGUGGUAUAUUACCUGGUA [G21U U52G], the self-cleavage was 0.661. As for GUCCUCUUUCACGUGCGCGUGGAAGAGAGAAGUGAACCAGAGAAACACACGUUGUGGUAUAUUCCCUGGUA [A22G A64C], the self-cleavage came out at 0.22. Then GUCCUCUUUCACGUGCGCGUUAAAGAGAGAAGUGAACCAGAGAAACACACGUUGUGGUAUAUUACCGGGUA [G21U U67G], with 0.36; and GUCCUCUUUCACGUGCGCGUGCAAGAGAGAAGUGAACCAGAGAGACACACGUUGUGGUAUAUUACCUGGUA [A22C A44G], with 0.135. For GUCCUCUUUCACGUGCGCGUGCAAGAGAGAAGUGAACCAGUGAAACACACGUUGUGGUAUAUUACCUGGUA [A22C A41U] the value was 1.06. On to GUCCUCUUUCACGUGCGCGUGGAAGAGAGAAGUGAACCAGAGAAACACAAGUUGUGGUAUAUUACCUGGUA [A22G C50A], for which the self-cleavage is 0.227. Take GUCCUCUUUCACGUGCGCGUGGAAGAGAGAAGUGAACCAGAGAAACACACGUUGUGGUAUAUUAACUGGUA [A22G C65A]: the self-cleavage amounted to 0.631.
